Data: the supplement of paper PMC10567573
± gives the standard deviation.

Assay: protein stability index of a GFP-peptide fusion (GPS, HEK-293T) (PSI 1-6); higher = more stable
[1] = treatment: DMSO, c terminus: a fixed tail appended
[2] = treatment: MLN4924 1 uM, 8 h, c terminus: a fixed tail appended
[3] = treatment: DMSO, c terminus: native
[4] = treatment: MLN4924 1 uM, 8 h, c terminus: native
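Also: 24-mer peptide tiles fused after GFP, lentivirally expressed, FACS-sorted into six equal bins by GFP/DsRed ratio, decoded by Illumina sequencing, PSI is the read-weighted mean bin number.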

| Sequence | protein stability index [1] | protein stability index [2] | protein stability index [3] | protein stability index [4] |
| --- | --- | --- | --- | --- |
| SNNKKNDEMQEVPNRVLAPEQSLK [SPANXN3] | 5.27 ± 0.16 | 5.36 ± 0.17 | – | – |
| SPAGELPKTVQQPTESEPVTINIQ [MATN2] | 5.29 ± 0.31 | 5.24 ± 0.38 | – | – |
| SPAPLDTCPSSSTASSISSSGGSS [DYRK1B] | 5.33 ± 0.16 | 5.35 ± 0.088 | – | – |
| SPINSPARGTPSPKRMPSGRGGRD [FSD1] | 5.22 ± 0.15 | 5.04 ± 0.35 | – | – |
| SPLHAAAEAGHVDICHMLVQFCRL [EHMT1] | 2.25 ± 0.069 | 2.5 ± 0.37 | – | – |
| SPSFPEAPDSGRSAPYSAAFLELP [TBX6] | 3.96 ± 0.3 | 3.93 ± 0.44 | – | – |
| SQEYQILLDVKTRLEQEIATYRRL [KRT16] | 2.71 ± 0.34 | 2.88 ± 0.44 | – | – |
| SQKATRECEKSALTPGFSDNAIML [FAN1] | 3.85 ± 0.22 | 3.98 ± 0.17 | – | – |
| SQKEMDKAETKTKKAAESLRRSVE [FCHO1] | 5.24 ± 0.29 | 5.23 ± 0.38 | – | – |
| SQKGCLALSLLELLGFNLTFVFLA [CLCN6] | 3.15 ± 0.42 | 3.03 ± 0.42 | – | – |
| SQLDSGVSQAVEGPEELSRSSSES [RIPK4] | 5.5 ± 0.087 | 5.54 ± 0.26 | – | – |
| SQMPPPAGGTSDDPEPSGPHLPRV [SCNN1D] | 5.23 ± 0.31 | 5.43 ± 0.12 | – | – |
| SQQQNMMQDYVRTGTYQRAILQNH [CARM1] | 3.21 ± 0.27 | 3.12 ± 0.23 | – | – |
| SREKTACAINKVGVSFSTVENELM [FAM98B] | 3.35 ± 0.28 | 3.63 ± 0.5 | – | – |
| SRESSKPRAVLKPRRVCVGGKRRR [PPP2R2C] | 4.94 ± 0.33 | 4.87 ± 0.19 | – | – |
| SRSSILVQHQRVHTGEKPYKCLEC [ZNF24] | 3.54 ± 0.19 | 3.65 ± 0.23 | – | – |
| SSEVGPFVSKIRAVINDIANLPVP [AUH] | 2.64 ± 0.25 | 2.62 ± 0.42 | – | – |
| SSFSLLLDLLSELYQKQPKIGYHL [INTS3] | 3.05 ± 0.2 | 2.86 ± 0.62 | – | – |
| SSGNTVLLLILCMQHSFPEPGRLY [TMEM192] | 3.1 ± 0.73 | 3.09 ± 0.53 | – | – |
| SSSFSNLDLSEEDSDDPSVTLELS [VDR] | 5.35 ± 0.23 | 5.16 ± 0.28 | – | – |
| SSSSSASSSASSSFSEEGAVGYSS [NFE2L1] | 5.25 ± 0.16 | 5.32 ± 0.13 | – | – |
| SSSSSSQAPGQPPGNQAEHGAVTV [ZBTB22] | 5.12 ± 0.15 | 5.08 ± 0.24 | – | – |
| SSYVASIVDGGESRSEKGDSSRY [RBMY1A1] | – | – | 4.35 ± 0.28 | 4.27 ± 0.35 |

| Sequence | protein stability index [1] | protein stability index [2] | protein stability index [3] | protein stability index [4] |
| --- | --- | --- | --- | --- |
| STALERPSFLSQTGHGVSRGPSPV [FCHO1] | 4.1 ± 0.34 | 4.28 ± 0.42 | – | – |
| STNEEEKEENEAESDVKHRTRDYK [PRIM1] | 5.57 ± 0.17 | 5.16 ± 0.47 | – | – |
| STNLGVNQAGFTLHSAIYAARPDV [ADD1] | 3.02 ± 0.18 | 3.08 ± 0.35 | – | – |
| STSFRVYIMAFDIKSEDMLKILKP [FBXO33] | 2.14 ± 0.59 | 3.02 ± 0.51 | – | – |
| SVHNDLWESWFVPDPAGIFKLNHH [GLT8D2] | 2.38 ± 0.18 | 2.53 ± 0.22 | – | – |
| SVNTHDYAKVKEFIVDILQFLDIG [MATN2] | 2.23 ± 0.35 | 2.05 ± 0.32 | – | – |
| SVSKAQSIYGIPHSTLEYKVKERL [LCOR] | 3.42 ± 0.43 | 3.54 ± 0.13 | – | – |
| SVTDVTTSSLRLNWEAPPGAFDSF [TNXB] | 3.54 ± 0.2 | 3.35 ± 0.16 | – | – |
| SVVGTVLAATQAEKAVANFDRTEW [ZC2HC1C] | 3.26 ± 0.21 | 3.26 ± 0.3 | – | – |
| SVVPEMEESGAQLLLEMLTFNPHK [CDK4] | 3.14 ± 0.26 | 3.15 ± 0.38 | – | – |
| SWAWRGPGVLKVLWLTASQPCSIV [LPCAT4] | 2.74 ± 1.1 | 2.52 ± 0.84 | – | – |
| SWYPKANNQDFIPFTKKRVGVDRA [ZC2HC1C] | 3.07 ± 0.33 | 2.94 ± 0.15 | – | – |
| SYAHGWMFQGWNCGDYFPDGITNG [CPN1] | 2.35 ± 0.18 | 2.27 ± 0.17 | – | – |
| SYSTQASAAAATAELLKKQEELNR [SCAMP3] | 4.99 ± 0.19 | 5.03 ± 0.11 | – | – |
| SYTIITPLFNPMIYSLRNKEFKSA [OR10K2] | 2.74 ± 0.65 | 2.38 ± 0.34 | – | – |
| TAIFYTLMTCEMLNRRNGSLRIAL [EDNRA] | 2.85 ± 0.21 | 3.15 ± 0.42 | – | – |
| TAPRTLPSCLACNRQCLCSAESMV [SPRY1] | 2.75 ± 0.34 | 2.59 ± 0.48 | – | – |
| TAPSGGQWGAEPEGSCYQTFRQYC [RNF208] | 2.75 ± 0.29 | 2.89 ± 0.18 | – | – |
| TASLLLCPGGLDHKLNLRGKAWG [TIAF1] | – | – | 2.98 ± 0.22 | 2.59 ± 0.67 |
| TAWTEACQVEVRLLLAYNSSARIP [INTS4] | 3.03 ± 0.4 | 2.43 ± 0.49 | – | – |
| TCSTRFVSGGSAGGYGGGVSCGFG [KRT13] | 2.46 ± 0.29 | 2.43 ± 0.31 | – | – |
| TDQPPLVQAIFSGDPEEIRMLIHK [ANKRD44] | 3.31 ± 0.28 | 3.48 ± 0.3 | – | – |
| TDRIAAAQYSVTGSAVARAVCKAT [SNAP91] | 3.9 ± 0.24 | 3.94 ± 0.19 | – | – |

| Sequence | protein stability index [1] | protein stability index [2] | protein stability index [3] | protein stability index [4] |
| --- | --- | --- | --- | --- |
| TDVRGLEEFLSAMQSARGPTPSSP [PLEKHN1] | 4.12 ± 0.16 | 4.14 ± 0.38 | – | – |
| TECEGDIQKNYECANFGDQGITMG [LOXL2] | 4.94 ± 0.11 | 5.04 ± 0.19 | – | – |
| TFNPHKRISAFRALQHSYLHKDEG [CDK4] | 2.87 ± 0.14 | 3.12 ± 0.09 | – | – |
| TFVSTCQAIDATVAAELLNHLLES [HES6] | 2.48 ± 0.35 | 2.48 ± 0.32 | – | – |
| TGEKPHTCSECGKGFIQKGNLNIH [ZNF649] | 3.14 ± 0.25 | 3.54 ± 0.16 | – | – |
| TGGLLPIKRTIRVLDVNNQSFREQ [NET1] | 2.92 ± 0.13 | 3.03 ± 0.24 | – | – |
| THSRMGSIMSTGIVQGSSGAQGSG [CARM1] | 4.48 ± 0.1 | 4.26 ± 0.34 | – | – |
| THWAVGVCRDSVSRKGELTPLPET [TRIM39] | 2.96 ± 0.19 | 2.95 ± 0.23 | – | – |
| TIFSASNYYEVGSNRGAYVKLGPA [PPEF2] | 2.39 ± 0.5 | 2.66 ± 0.3 | – | – |
| TIVSCTPVHLVDKLPLPSTLRSHL [RAB40A] | 2.32 ± 0.091 | 2.28 ± 0.15 | – | – |
| TKCEYMLNSMPKRLCLVCGDIASG [ESRRG] | 2.32 ± 0.29 | 2.13 ± 0.12 | – | – |
| TKSHIMLVQRQMSVIEEDLEEFQL [NECAB1] | 3.22 ± 0.21 | 3.12 ± 0.21 | – | – |
| TLCDVTLRVEQKDFPAHRIVLAAC [KLHL12] | 2.21 ± 0.52 | 1.83 ± 0.53 | – | – |
| TLDPNGKTCSRVDHCAQQDHGCEQ [MATN2] | 4.03 ± 0.25 | 4.16 ± 0.22 | – | – |
| TLGREVMSPLQAMSSYTVAGRNVL [NLN] | 3.1 ± 0.2 | 3.01 ± 0.34 | – | – |
| TLMEEVLLLGLKDREGYTSFWNDC [GOLPH3] | 2.71 ± 0.58 | 2.72 ± 0.69 | – | – |
| TLRGTGATADFADVADDFENYHKL [NETO1] | 4.4 ± 0.22 | 4.49 ± 0.084 | – | – |
| TLVGCWSDVVGRRSSLLACILLSA [MFSD9] | 2.84 ± 0.38 | 2.71 ± 0.4 | – | – |
| TMGLRHLPVVNAVGEIVGIITRHN [CLCN6] | 2.47 ± 0.19 | 2.41 ± 0.12 | – | – |
| TNNGAGFGLSILWVLLFTPCSFVC [SCAMP3] | 3.04 ± 0.37 | 3.27 ± 0.36 | – | – |
| TNVESQLAEIRSDLERQNQEYQVL [KRT33B] | 4.52 ± 0.26 | 4.56 ± 0.25 | – | – |
| TPEELEEEIPVVICAAAGRMGATM [GLT8D2] | 4.25 ± 0.26 | 4.29 ± 0.21 | – | – |
| TPMTIPEFFRESVNRFGTYPALAS [ACSBG2] | 2.6 ± 0.41 | 2.78 ± 0.14 | – | – |

| Sequence | protein stability index [1] | protein stability index [2] | protein stability index [3] | protein stability index [4] |
| --- | --- | --- | --- | --- |
| TQYVRHSSDPFYTPEPDTCHELLG [TPH1] | 3.63 ± 0.35 | 4 ± 0.32 | – | – |
| TRGFLRSPSSDLDTDAEGDDFELL [RETREG3] | 5.24 ± 0.17 | 5.29 ± 0.2 | – | – |
| TSAITASRSESPPPLSDPKQAKVV [BRD3] | 5.24 ± 0.22 | 5.21 ± 0.077 | – | – |
| TSTFEATSEGTLELQQRNPKAERL [ZNF232] | 5.2 ± 0.2 | 5.42 ± 0.14 | – | – |
| TSTRYEQPKCDNTARAHPAKARDL [SMOC2] | 4.85 ± 0.19 | 5.17 ± 0.27 | – | – |
| TSTSSSITSSIPDTERLDDFHLSI [DVL3] | 3.84 ± 0.27 | 3.96 ± 0.23 | – | – |
| TTTDHSSNPGPVPGSSSGPVLGSS [SPAG8] | 5.08 ± 0.16 | 5.13 ± 0.09 | – | – |
| TVDGLHFNSTYNARVKAFNKTGVS [TRIM9] | 3.17 ± 0.19 | 3.46 ± 0.086 | – | – |
| TVDKQNISLWPREPPPKSGPSLVP [CD207] | 3.84 ± 0.21 | 3.73 ± 0.082 | – | – |
| TVGFLDEAIQPYRDRLRSRLEALS [TRIM15] | 2.66 ± 0.27 | 2.77 ± 0.39 | – | – |
| TVRAMTHVINQGMAMYWGTSRWSS [KCNAB2] | 2.91 ± 0.42 | 2.75 ± 0.51 | – | – |
| TYIPENNARGASIFSVTALDPDSK [PCDHGA10] | 4.49 ± 0.17 | 4.62 ± 0.15 | – | – |
| TYTHGLGLHRRPGAGHCSASPGPA | 3.42 ± 0.24 | 3.48 ± 0.24 | – | – |
| VAGGLVACRVTELQQQPLCTSVNT [LRRC59] | 2.39 ± 0.5 | 2.59 ± 0.18 | – | – |
| VAGSLAGAIAQSSIYPMEVLKTRM [SLC25A25] | 2.56 ± 0.11 | 2.54 ± 0.32 | – | – |
| VAGTMESPFSPGLFHRLDEDWDSA [ATF6] | 4.38 ± 0.11 | 4.32 ± 0.2 | – | – |
| VAKRKSSMPQKFLGDKGLSDTPYD [IKZF1] | 4.22 ± 0.1 | 4.38 ± 0.16 | – | – |
| VARVLRGCLENMPEADCIPKEQLS [PLK2] | 3.42 ± 0.26 | 3.62 ± 0.13 | – | – |
| VASMVLGECRQMSSSSQIGNDSFQ [CLCN6] | 2.87 ± 0.32 | 2.67 ± 0.27 | – | – |
| VCAICQINLEGKTFYSKKDRPLCK [PDLIM7] | 2.1 ± 0.44 | 2.42 ± 0.5 | – | – |
